How the values were obtained:
[1] = target: CAP domain of pathogen-related yeast protein-1 (Pry1) from Saccharomyces cerevisiae (Saccharomyces cerevisiae); test: SEC; 20 μg Pry1CAP injected on a Yarra SEC-2000 column, 0.5 ml/min, PBS pH 7.4 as mobile phase, calibrated with Bio-Rad gel filtration standards, in triplicate
[2] = target: T1, Pathogen-related yeast 1 (Pry1), CAP domain (Pry1CAP) (Saccharomyces cerevisiae, UniProt P47032); test: [3H]-cholesterol saturation radioligand binding with purified protein
T1 construct: C-terminal CAP domain, Ser151 through Ala296 (Pry1CAP)
T1 sequence (P47032 151-296): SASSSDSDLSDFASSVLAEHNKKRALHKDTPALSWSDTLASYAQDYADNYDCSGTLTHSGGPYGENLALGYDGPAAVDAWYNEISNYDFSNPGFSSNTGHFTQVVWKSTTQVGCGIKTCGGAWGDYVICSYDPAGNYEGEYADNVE

| Molecule | stoichiometry N [1] | Kd [2] |
| --- | --- | --- |
| CAP domain of pathogen-related yeast protein-1 (Pry1) from Saccharomyces cerevisiae (domain or fragment) | 2 |  |
| CC(C)CCC[C@@H](C)[C@H]1CC[C@H]2[C@@H]3CC=C4C[C@@H](O)CC[C@]4(C)[C@H]3CC[C@]12C [cholesterol] |  | 2080 ± 70 nM |

Reference: article PMC4921858, “Structural and functional characterization of the CAP domain of pathogen-related yeast 1 (Pry1) protein” (Scientific Reports, 2016)
